Assay [1] has as its target 16055 NFL I559P (HIV-1 16055 (clade C)). The assay can be described thus: SEC; Superdex 200 16/60 or 10/300 GL after lectin-affinity chromatography; also after negative selection or rEK cleavage where told. Background: In gel filtration, larger molecules generally elute earlier.
The target of assay [2] is 16055 NFL L555P (HIV-1 16055 (clade C)). Description: negative stain electron microscopy; 2D class averages (RELION) of purified trimers, ~0.01 mg/mL, 0.7% uranyl formate.
The target is the same in assay [3]. Description: SEC; Superdex 200 16/60 or 10/300 GL after lectin-affinity chromatography; also after negative selection or rEK cleavage where told.
Assay [4] addresses 16055 NFL N554P (HIV-1 16055 (clade C)). Described as above.
The target in assay [5] is 16055 NFL Q562P (HIV-1 16055 (clade C)). Description: negative stain electron microscopy; 2D class averages (RELION) of purified trimers, ~0.01 mg/mL, 0.7% uranyl formate.
Assay [6] has the same target. The assay can be described thus: SEC; Superdex 200 16/60 or 10/300 GL after lectin-affinity chromatography; also after negative selection or rEK cleavage where told.
The target of assay [7] is 16055 NFL Q563P (HIV-1 16055 (clade C)). Description: negative stain electron microscopy; 2D class averages (RELION) of purified trimers, ~0.01 mg/mL, 0.7% uranyl formate.
For assay [8] the target is unchanged. The assay can be described thus: SEC; Superdex 200 16/60 or 10/300 GL after lectin-affinity chromatography; also after negative selection or rEK cleavage where told.
The target in assay [9] is 16055 NFL S553P (HIV-1 16055 (clade C)). Described as above.
Assay [10] has as its target BG505 NFL I559P (HIV-1 BG505 (clade A)). The assay is described as above.
The target in assay [11] is BG505 NFL L555P (HIV-1 BG505 (clade A)). Description: negative stain electron microscopy; 2D class averages (RELION) of purified trimers, ~0.01 mg/mL, 0.7% uranyl formate.
Assay [12] has the same target. Description: SEC; Superdex 200 16/60 or 10/300 GL after lectin-affinity chromatography; also after negative selection or rEK cleavage where told.
Assay [13] concerns the target BG505 NFL N554P (HIV-1 BG505 (clade A)). Described as above.
Assay [14] addresses BG505 NFL Q562P (HIV-1 BG505 (clade A)). The description is as above.
Assay [15] concerns the target BG505 NFL Q563P (HIV-1 BG505 (clade A)). Described as above.
Assay [16] deals with BG505 NFL S553P (HIV-1 BG505 (clade A)). The description is as above.

In the case of 16055 NFL I559P (domain or fragment), the stoichiometry N (usually a count of units in the complex or per binding partner) in assay [1] was found to be 3.

Take 16055 NFL L555P (domain or fragment): the stoichiometry N in assay [2] and in assay [3] was 3 throughout.

16055 NFL N554P (domain or fragment) registered a stoichiometry N in assay [4] of 3.

As for 16055 NFL Q562P (domain or fragment), the stoichiometry N in [5] and in assay [6] was 3 throughout.

Regarding 16055 NFL Q563P (domain or fragment), the stoichiometry N in assay [7] and in assay [8] was 3 each time.

In turn, 16055 NFL S553P (domain or fragment) returned a stoichiometry N in assay [9] of 3.

In turn, BG505 NFL I559P (domain or fragment) showed a stoichiometry N in assay [10] of 3.

For the substance BG505 NFL L555P (domain or fragment), the stoichiometry N in assay [11] and in [12] was 3 each time.

The substance BG505 NFL N554P (domain or fragment) came in with a stoichiometry N in [13] of 3.

With BG505 NFL Q562P (domain or fragment), in assay [14], the stoichiometry N is 3.

In assay [15], BG505 NFL Q563P (domain or fragment) yielded a stoichiometry N of 3.

In turn, BG505 NFL S553P (domain or fragment) showed a stoichiometry N in [16] of 3.

(Values after article PMC6056610.)
